From patent US20120045393A1 (priority 2009, published 2012) come the findings set out here.

The test system of one experiment is EFO-27 cells. Kind of experiment: Internalization/efflux studies in EFO-27 cells. Type of experiment: cell-based, human. On the procedure: Internalization/Efflux Studies: The internalization and efflux studies were carried out following the general procedure. Basically, ^177Lu-LHRH II or ^125I-LHRH II ([^125I-Tyr^8]BRU-2477) (75 uL, 3.0 μCi/mL) was added to the EFO-27 or PC-3 cells. The cells were incubated for 40 min at 37° C. The unbound radioactivity was washed off (4×). Following addition of fresh medium, the cells were further incubated for up to 2 h. At various time points (15, 30, 60 & 120 min) the distribution of radioactivity (membrane-bound, internalized, and efflux) was determined
The internalization and efflux of several Lu-177 labeled LHRH II analogs in EFO-27 cells have been investigated. Basically, following pre-incubation of cells with ^177Lu-LHRH II samples, the binding buffer containing the ^177Lu was replaced with fresh media without complex. The extent of initial internalization (T=0), the amount of radioactive material that remained internalized and the efflux at 0-120 min were determined. The results are shown in FIGS. 21a-f and 22a-c and in Table 25.

The subject of experiment [1] is LHRH binding sites on human ovarian cancer cells (EFO-27). The conditions noted are these: Table 5: modifications of amino acids at positions 1 and 2; in vitro binding on EFO-27 cells.
The target of experiment [2] is LHRH receptor (LHRH binding sites) on EFO-27 human ovarian cancer cells (human). Kind of experiment: competition with [125I-Tyr8]BRU-2477, EFO-27 cells.
Experiment [3] concerns the target LHRH binding sites on EFO-27 human ovarian cancer cells (human). The experiment can be described thus: competition with [125I-Tyr8]BRU-2477 on EFO-27 cells.

Non-standard residues stand in square brackets, D forms with d. Primed or numbered codes have the meaning given here. azaGly′ = aza-glycine residue at the C-terminus, with NH2; Bpa = N[C@@H](Cc1ccc(C(=O)c2ccccc2)cc1)C(=O)O; d2Nal = N[C@H](Cc1ccc2ccccc2c1)C(=O)O; DO3A10CM = not defined here; Bpa4 = non-natural residue; Damfe4 = not defined here; Ahgly = not defined here; Amfe4 = not defined here; Ampc4 = not defined here; Hypt4 = not defined here; Mogly = not defined here; Ppt4 = not defined here; azaGly = NNC(=O)O; Sar = CNCC(=O)O

By EC50 is commonly meant the concentration at which the effect is half-maximal. A low value points to a more potent agent. For the molecule “BRU-2756: DO3A10CM LHRH-II analog prepared in house for Lu labeling (DO3A10CM-[Sar][Amfe4]WSH[dR]W[Bpa4]P[azaGly]-NH2; reading uncertain)”, the “Cell associated activity at 0 h % Efflux” value with EFO-27 cells (0 h) amounted to 7.7%. In the experiment with EFO-27 cells (0 h, internalized), the “Cell associated activity at 0 h % Intern” value is reported as 42.0%. Besides, in the experiment with EFO-27 cells (0 h, membrane bound), the “Cell associated activity at 0 h % Memb” value amounted to 51.5%. Besides, the “Cell associated activity at 2 h % Efflux” value with EFO-27 cells (2 h) is listed as 82.5%. In addition, the “Cell associated activity at 2 h % Intern” value in the experiment on EFO-27 cells (2 h, internalized) is reported as 9.9%. Moreover, in the experiment with EFO-27 cells (2 h, membrane bound), the “Cell associated activity at 2 h % Memb” value is listed as 7.4%. This molecule also displayed a Bound % with EFO-27 cells (of added) of 5.10%. Further, in the experiment with EFO-27 cells (per well), the Bound was determined as 10.2 fmol. Further, in experiment [1], the response was half-maximal at 280 nM (EC50).

As to XRWSHXWXPX (DO3A10CM on N-terminus; AA1 Dtyr; AA6 Darg; AA8 Bpa4; AA10 azaGly-NH2) [BRU-3054], the EC50 in experiment [2] and in experiment [3] was 430 nM throughout.

B1: BRU-2961 (peptide)
peptide: XRWSXXWXPX
modifications: N-terminal DO3A10CM; Dnal2 at 1; Orn at 5; Darg at 6; Bpa4 at 8; azaGly-NH2 at 10
Regarding B1, the EC50 in experiment [2] and in experiment [3] was 350 nM each time.

As for DO3A10CM-[d2Nal]RWSH[dR]W[Bpa4][Hypt4][azaGly]-NH2 (reading uncertain) [BRU-2952], the EC50 in experiment [2] and in experiment [3] was 280 nM each time.

For XRWSHXWXPX (DO3A10CM on N-terminus; AA1 Apsp; AA6 Darg; AA8 Bpa4; AA10 azaGly-NH2) [BRU-3056], the EC50 in experiment [2] and in experiment [3] was 440 nM each time.

B2: BRU-2439 (peptide)
peptide: XHWSHXWYPX
HELM: PEPTIDE1{[Sar].H.W.S.H.[dR].W.Y.P.[O=C(NN[*:1])[*:2]].[am]}$$$$V2.0; N-terminus assumed
SMILES: CNCC(=O)N[C@@H](Cc1c[nH]cn1)C(=O)N[C@@H](Cc1c[nH]c2ccccc12)C(=O)N[C@@H](CO)C(=O)N[C@@H](Cc1c[nH]cn1)C(=O)N[C@H](CCCNC(=N)N)C(=O)N[C@@H](Cc1c[nH]c2ccccc12)C(=O)N[C@@H](Cc1ccc(O)cc1)C(=O)N1CCC[C@H]1C(=O)NNC(N)=O
As for B2, the EC50 in experiment [2] and in experiment [3] was 250 nM each time.

B3: BRU-3062 (peptide)
peptide: DO3A10CM-[d2Nal]RWSH[dR]W[Bpa][Ampc4][azaGly′]-NH2
modifications: reading uncertain; also: printed as DO3A10CM-Dnal2-Arg-Trp-Ser-His-Darg-Trp-Bpa4-Ampc4-azaGly-NH2
For B3, the EC50 in experiment [2] and in experiment [3] was 320 nM throughout.

B4: BRU-3053 (peptide)
peptide: GXRWSHXWXPX
modifications: N-terminal DO3A10CM; Gly linker before 1; Tpi at 1; Darg at 6; Bpa4 at 8; azaGly-NH2 at 10
Consider B4, for which the EC50 in experiment [2] and in experiment [3] was 320 nM in each case.

For XRWSHXWXPX (DO3A10CM on N-terminus; AA1 Datdc2; AA6 Darg; AA8 Bpa4; AA10 azaGly-NH2) [BRU-3063], the EC50 in experiment [2] and in experiment [3] was 470 nM throughout.

XRWSHXWXPX (DO3A10CM on N-terminus; AA1 Dbpa4; AA6 Darg; AA8 Bpa4; AA10 azaGly-NH2) [BRU-3071]: the EC50 in experiment [2] and in experiment [3] was 310 nM in each case.

B5: BRU-3104 (peptide)
peptide: XRXSHXWXPX
modifications: N-terminal DO3A10CM; Dnal2 at 1; Nal1 at 3; Darg at 6; Bpa4 at 8; azaGly-NH2 at 10
For the molecule B5, the EC50 in experiment [2] and in experiment [3] was 250 nM in each case.

In the case of XRWSHXWXPX (DO3A10CM on N-terminus; AA1 Thy; AA6 Darg; AA8 Bpa4; AA10 azaGly-NH2) [BRU-3069], the EC50 in experiment [2] and in experiment [3] was 380 nM each time.

For DO3A10CM-G[Ahgly]HWSH[dR]W[Bpa]P[azaGly]-NH2 (not fully specified; reading uncertain) [BRU-2876], the EC50 in experiment [2] and in experiment [3] was 500 nM in each case.

As to DO3A10CM-[Damfe4][Damfe4]WSH[dR]W[Bpa]P[azaGly]-NH2 (reading uncertain) [BRU-3095], the EC50 in experiment [2] and in experiment [3] was 290 nM throughout.

B6: BRU-2985 (peptide)
peptide: XRWSHXWXP
modifications: N-terminal DO3A10CM; Dnal2 at 1; Darg at 6; Bpa4 at 8; C-terminal A1gua5o3pt at 10
Regarding B6, the EC50 in experiment [2] and in experiment [3] was 460 nM in each case.

B7: BRU-3021 (peptide)
peptide: XRWSHXWXP
modifications: N-terminal DO3A10CM; Dnal2 at 1; Darg at 6; Bpa4 at 8; C-terminal Az23m2po-NH2 at 10
For the molecule B7, the EC50 in experiment [2] and in experiment [3] was 500 nM in each case.

As for XRWSHXWXPX (DO3A10CM on N-terminus; AA1 Bip; AA6 Darg; AA8 Bpa4; AA10 azaGly-NH2) [BRU-3070], the EC50 in experiment [2] and in experiment [3] was 280 nM each time.

B8: BRU-3107 (peptide)
peptide: XRXSHXWXPX
modifications: N-terminal DO3A10CM; Dnal2 at 1; Amfe4 at 3; Darg at 6; Bpa4 at 8; azaGly-NH2 at 10
Consider B8, for which the EC50 in experiment [2] and in experiment [3] was 380 nM each time.

With XRWSHXWXPX (DO3A10CM on N-terminus; AA1 Qua3; AA6 Darg; AA8 Bpa4; AA10 azaGly-NH2) [BRU-3057], the EC50 in experiment [2] and in experiment [3] was 380 nM in each case.

B9: BRU-3105 (peptide)
peptide: XRXSHXWXPX
modifications: N-terminal DO3A10CM; Dnal2 at 1; Nal2 at 3; Darg at 6; Bpa4 at 8; azaGly-NH2 at 10
Take B9: the EC50 in experiment [2] and in experiment [3] was 220 nM each time.

For the molecule DO3A10CM-[d2Nal]RWSH[dR]W[Bpa4][Ppt4][azaGly]-NH2 (reading uncertain) [BRU-2953], the EC50 in experiment [2] is 830 nM. In experiment [3], the EC50 is 650 nM and the factor of reduced binding against BRU-2813 came to 2 fold.

B10: BRU-2984 (peptide)
peptide: XRWSHXWXP
modifications: N-terminal DO3A10CM; Dnal2 at 1; Darg at 6; Bpa4 at 8; C-terminal Gua (guanidine) at 10
Consider B10, for which the EC50 in experiment [2] and in experiment [3] was 400 nM each time.

Take XRWSHXWXP (AA1 Sar; AA6 Darg; AA8 Bpa4; AA10 Da15o3pt) [BRU-3007]: the EC50 in experiment [2] and in experiment [3] was 220 nM in each case.

B11: BRU-2955 (peptide)
peptide: XRWXHXWXPX
modifications: N-terminal DO3A10CM; Dnal2 at 1; Dap at 4; Darg at 6; Bpa4 at 8; azaGly-NH2 at 10
For the molecule B11, the EC50 in experiment [2] and in experiment [3] was 410 nM in each case.

Turning to XRWSHXWXP (DO3A10CM on N-terminus; AA1 Dnal2; AA6 Darg; AA8 Bpa4; AA10 Mo2abn) [BRU-3020], the 50% effective concentration (EC50) in experiment [2] and in experiment [3] was 450 nM each time.

Take XRWSHXWXPX (DO3A10CM on N-terminus; AA1 Atdc2; AA6 Darg; AA8 Bpa4; AA10 azaGly-NH2) [BRU-3055]: the EC50 in experiment [2] and in experiment [3] was 390 nM in each case.

As to DO3A10CM-G[Mogly]HWSH[dR]W[Bpa]P[azaGly]-NH2 (reading uncertain) [BRU-2796], the EC50 in experiment [2] and in experiment [3] was 340 nM in each case.

B12: BRU-3115 (peptide)
peptide: XRWXHXWXPX
modifications: N-terminal DO3A10CM; Dnal2 at 1; Amfe4 at 4; Darg at 6; Bpa4 at 8; azaGly-NH2 at 10
B12: the EC50 in experiment [2] and in experiment [3] was 150 nM throughout.

B13: BRU-3068 (peptide)
peptide: GXRWSHXWXPX
modifications: N-terminal DO3A10CM; Gly linker before 1; Dtpi at 1; Darg at 6; Bpa4 at 8; azaGly-NH2 at 10
As for B13, the EC50 in experiment [2] and in experiment [3] was 240 nM throughout.

B14: BRU-3006 (peptide)
peptide: XRWSHXWXP
modifications: N-terminal DO3A10CM; Dnal2 at 1; Darg at 6; Bpa4 at 8; C-terminal Ap (aminophenyl) at 10
For the molecule B14, the concentration for a half-maximal effect (EC50) in experiment [2] and in experiment [3] was 420 nM each time.

Regarding XHWSHXWXPX (AA1 Mephe; AA6 Darg; AA8 Bpa4; AA10 azaGly-NH2) [BRU-2734], the half-maximal effective concentration (EC50) in experiment [2] and in experiment [3] was 150 nM throughout.

B15: BRU-2960 (peptide)
peptide: XRWSXXWXPX
modifications: N-terminal DO3A10CM; Dnal2 at 1; Fur3ala at 5; Darg at 6; Bpa4 at 8; azaGly-NH2 at 10
Consider B15, for which the EC50 in experiment [2] and in experiment [3] was 400 nM throughout.

B16: BRU-2971 (peptide)
peptide: DO3A10CM-[d2Nal]RWSH[dR]W[Bpa]PGQ-NH2
modifications: reading uncertain; also: printed as DO3A10CM-Dnal2-Arg-Trp-Ser-His-Darg-Trp-Bpa4-Pro-Gly-Gln-NH2
As for B16, the EC50 in experiment [2] and in experiment [3] was 490 nM each time.

With XRWSHXWXP (DO3A10CM on N-terminus; AA1 Dnal2; AA6 Darg; AA8 Bpa4; AA10 Pheol) [BRU-2983], the EC50 in experiment [2] and in experiment [3] was 450 nM in each case.

B17: BRU-3049 (peptide)
peptide: XXWSHXWXPX
modifications: N-terminal DO3A10CM; Dnal2 at 1; Darg at 2; Darg at 6; Bpa4 at 8; azaGly-NH2 at 10
In the case of B17, the EC50 in experiment [2] and in experiment [3] was 360 nM throughout.

Consider XRWSHXWXPX (DO3A10CM on N-terminus; AA1 Ampha4; AA6 Darg; AA8 Bpa4; AA10 azaGly-NH2) [BRU-3094], for which the EC50 in experiment [2] and in experiment [3] was 350 nM in each case.

With XRWSRXWXPX (DO3A10CM on N-terminus; AA1 Dnal2; AA6 Darg; AA8 Bpa4; AA10 azaGly-NH2) [BRU-2959], the EC50 in experiment [2] and in experiment [3] was 250 nM throughout.
